Reference: US20120028347A1 (TOKAI UNIVERSITY EDUCATIONAL SYSTEM, published 2012)

How the values were obtained:
[1] = biological target: T1, baculovirus-derived recombinant human CD4 (rhCD4) (human, UniProt P01730 26-396, limits assumed); assay: ELISA, purified Fab on coated rhCD4
T1 construct: Bought reagent, coated on ELISA plates at 50 ng/well
Experimental: (§1) The rhCD4 was dissolved in a 50 mM carbonate buffer (pH 9.6) solution to a concentration of 2 μg/mL, and the thus prepared solution was dispensed in an amount of 50 μL each into the wells on an ELISA plate, and it was then left at 4° C. overnight. Thereafter, the wells were washed with PBS-T (PBS-0.05% Tween) once. Then, 300 μL of PBS-T-SM (PBS-T-1% skim milk) was added thereto, so as to block it at room temperature for 1 hour. Subsequently, the PBS-T-SM was removed, 50 μL of an antibody sample diluted with PBS-T-SM was then added thereto, and the mixture was then left at room temperature for 1 hour. Thereafter, the sample was removed, and the residue was then washed with PBS-T three times. A PO-bound anti-human IgG-Fab antibody was diluted with PBS-T at a ratio of 1:2000, and 50 μL of the thus diluted solution was then added to the wells. The obtained mixture was left at room temperature for 1 hour. Thereafter, the secondary antibody was removed, and the residue was then washed with PBS-T three times. 50 μL of a TMB reagent was added to the resultant, so as to develop color. The color was measured at OD of 650 nm.
(§2) The percentage of peripheral B cells producing human CD4-reactive antibodies in total peripheral B cells was assumed to be approximately 0.0013%. The binding of the IgM Fab of each of the purified three clones to rhCD4 was examined by ELISA (FIG. 2).

[2] = biological target: T1, baculovirus-derived recombinant human …; assay: ELISA, purified Fab on coated rhCD4 (50 ng/well); amount of antibody at OD650 of about 0.7 to 0.8, where 50% of the maximum binding was observed
Experimental: as §1, with “Thereafter,” for “The rhCD4 was dissolved in a 50 mM carbonate buffer (pH 9.6) solution to a concentration of 2 μg/mL, and the thus prepared solution was dispensed in an amount of 50 μL each into the wells on an ELISA plate, and it was then left at 4° C. overnight. Thereafter,”
as §2

B1: HO538-213 (Fab, V domains shown)
VH: QVQLVQSGGGVVQPGRSLRLSCAASGFTFSSYGMHWVRQAPGKGLEWVAVVCYDGRTTYYADSVKGRFTISRDISENTLYLQMNSLRAEDTAVYYCAKDLNKGYCNNGGCYGVDCWGQGTLVTVSS
VL: EIVMTQSPATLSLSPGERATLSCRASQSVNNYLAWYQQRPGQAPSLLIYDASNRATGIPARFSGSGSGTDFTLTISSLEPEDFAVYYCQQRGNWPHTFGQGTKLEIKR
notes: Human IgM Fab (mu Fd and kappa light chain) expressed in E. coli JM109 from the vector pFab1-His2 and purified on an anti-Fab column; No sentence says it outright
[1]
  affinity relative to the other clones (HO702-001 and HO702-016): 0.125 fold
[2]
  EC50: ~8 µg/mL
